# B1: HCMV-20 scFv antibody, purified His-tag fused polypeptide expressed in E. coli (scFv)
# scFv: MAQVQLQESGPGLVKPSGTLSLTCAVSGGSISSSNWWSWVRQPPGKGLEWIGEIYHSGSTNYNPSLKSRVTISVDKSKNQFSLKLSSVTAADTAVYYCAREGSYEAFDYWGQGTLVTVSSGGGGSGGGGSGGGGSNFMLTQPHSVSESPGKTVTISCTRSSGSIASNYVQWYQQRPGSAPSTVIYDDNQRPSGVPDRFSGSIDSSSNSASLTISGLKTEDEADYYCQSYDSSNHGVVFGGGTKLTVLGAA
# B2: HCMV-20 scFv antibody displayed on phage (positive phage clone from the mixed scFv phage display library) (scFv)
# scFv: B1 scFv
# Assays:
# [1] = molecular target: HCMV RC256 particles (human cytomegalovirus strain RC256) (human cytomegalovirus); assay: cell-based or functional assay
# [2] = molecular target: HCMV RC256 particles (human cytomegalovirus strain RC256) (human cytomegalovirus); assay: phage ELISA; plate coated with HCMV RC256 against a control plate coated with lysate of E. coli transfected with pET-22b; detection with HRP anti-M13
Binder,"plaque number, Test 1, 1.0 uM HCMV-20 (virus only: 152) [1]","plaque number, Test 1, 2.0 uM HCMV-20 (virus only: 152) [1]","plaque number, Test 1, 4.1 uM HCMV-20 (virus only: 152) [1]","plaque number, Test 1, 8.1 uM HCMV-20 (virus only: 152) [1]","plaque number, Test 1, 16.3 uM HCMV-20 (virus only: 152) [1]","plaque number, Test 2, 1.0 uM HCMV-20 (virus only: 139) [1]","plaque number, Test 2, 2.0 uM HCMV-20 (virus only: 139) [1]","plaque number, Test 2, 4.1 uM HCMV-20 (virus only: 139) [1]","plaque number, Test 2, 8.1 uM HCMV-20 (virus only: 139) [1]","plaque number, Test 2, 16.3 uM HCMV-20 (virus only: 139) [1]",HCMV/control (ELISA signal ratio) [2]
B1,92 plaques,36 plaques,23 plaques,20 plaques,15 plaques,93 plaques,42 plaques,17 plaques,16 plaques,16 plaques,
B2,,,,,,,,,,,> 8
